According to patent US20090004190A1 (published 2009):

B1: RAGE fusion protein TTP-4000 (Fc fusion)
chain: QNITARIGEPLVLKCKGAPKKPPQRLEWKLNTGRTEAWKVLSPQGGGPWDSVARVLPNGSLFLPAVGIQDEGIFRCQAMNRNGKETKSNYRVRVYQIPGKPEIVDSASELTAGVPNKVGTCVSEGSYPAGTLSWHLDGKPLVPNEKGVSVKEQTRRHPETGLFTLQSELMVTPARGGDPRPTFSCSFSPGLPRHRALRTAPIQPRVWEPVPLEEVQLVVEPEGGAVAPPSVFLFPPKPKDTLMISRTPEVTCVVVDVSHEDPEVKFNWYVDGVEVHNAKTKPREEQYNSTYRVVSVLTVLHQDWLNGKEYKCKVSNKALPAPIEKTISKAKGQPREPQVYTLPPSRDELTKNQVSLTCLVKGFYPSDIAVEWESNGQPENNYKTTPPVLDSDGSFFLYSKLTVDKSRWQQGNVFSCSVMHEALHNHYTQKSLSLSPGK
modifications: N-terminal residue glutamine (Q) or pyroglutamic acid (pE) or a mixture thereof; glycosylation sites at N2 and N288 (numbering of SEQ ID NO: 34 or 56); C-terminal residue of CH3 may be cleaved off
notes: No immunoglobulin hinge; Made in CHO cells, purified on Protein A; also called TT4; four domain RAGE fusion protein
B2: RAGE fusion protein TTP-3000 (Fc fusion)
chain: QNITARIGEPLVLKCKGAPKKPPQRLEWKLNTGRTEAWKVLSPQGGGPWDSVARVLPNGSLFLPAVGIQDEGIFRCQAMNRNGKETKSNYRVRVYQIPGKPEIVDSASELTAGPSVFLFPPKPKDTLMISRTPEVTCVVVDVSHEDPEVKFNWYVDGVEVHNAKTKPREEQYNSTYRVVSVLTVLHQDWLNGKEYKCKVSNKALPAPIEKTISKAKGQPREPQVYTLPPSRDELTKNQVSLTCLVKGFYPSDIAVEWESNGQPENNYKTTPPVLDSDGSFFLYSKLTVDKSRWQQGNVFSCSVMHEALHNHYTQKSLSLSPGK
notes: also called TT3; three domain RAGE fusion protein

Tests used:
BSA = biological target: T1, BSA (UniProt P02769 25-607); test: plate ELISA, BSA-only coating, detection with anti-human IgG1 complex, absorbance at 405 nm
T1 construct: Negative control coating; also called BSA coating alone; BSA+wash
Procedure: (§1) Known RAGE ligands were coated onto the surface of Maxisorb plates at a concentration of 5 micrograms per well. Plates were incubated at 4° C. overnight. Following ligand incubation, plates were aspirated and a blocking buffer of 1% BSA in 50 mM imidizole buffer (pH 7.2) was added to the plates for 1 hour at room temperature. The plates were then aspirated and/or washed with wash buffer (20 mM Imidizole, 150 mM NaCl, 0.05% Tween-20, 5 mM CaCl₂ and 5 mM MgCl₂, pH 7.2). […] The RAGE fusion protein was added at increasing dilutions of the initial sample. The RAGE fusion protein was allowed to incubate with the immobilized ligand at 37° C. for one hour after which the plate was washed and assayed for binding of the RAGE fusion protein. Binding was detected by the addition of an immunodetection complex containing a monoclonal mouse anti-human IgG1 diluted 1:11,000 to a final assay concentration (FAC) of 21 ng/100 μL, a biotinylated goat anti-mouse IgG diluted 1:500, to a FAC of […], and an avidin-linked alkaline phosphatase. […] Binding of the complex to the immobilized RAGE fusion protein was quantified by measuring conversion of PNPP to para-nitrophenol (PNP) which was measured spectrophotometrically at 405 nm.

[1] = biological target: T2, Amyloid Beta (1-40) from Biosource (UniProt P05067 672-711); test: plate assay, immobilized ligand (A beta=Amyloid beta 1-40), fusion protein 0 to 360 nM, anti-IgG polyclonal antibody with alkaline phosphatase
T2 construct: domain: Amyloid Beta (1-40); Immobilized on Maxisorb plates at 5 micrograms per well; also called Abeta; A-beta
Procedure: The ligands are immobilized on a microtiter plate and incubated in the presence of increasing concentrations of RAGE fusion protein from 0 to 360 nM. The RAGE fusion protein-ligand interaction is detected using a polyclonal antibody conjugated with alkaline phosphatase that is specific for the IgG portion of the fusion chimera. […] HMG1B=Ampoterin, CML=Carboxymethyl Lysine, A beta=Amyloid beta 1-40.

[2] = biological target: T2, Amyloid Beta (1-40) from Biosource; test: plate ELISA, immobilized ligand, dilutions of fusion protein, absorbance at 405 nm
Procedure: as §1

T2 sequence (P05067 672-711 limits assumed): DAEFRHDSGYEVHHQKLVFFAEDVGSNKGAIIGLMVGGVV
T1 sequence (P02769 25-607 limits assumed): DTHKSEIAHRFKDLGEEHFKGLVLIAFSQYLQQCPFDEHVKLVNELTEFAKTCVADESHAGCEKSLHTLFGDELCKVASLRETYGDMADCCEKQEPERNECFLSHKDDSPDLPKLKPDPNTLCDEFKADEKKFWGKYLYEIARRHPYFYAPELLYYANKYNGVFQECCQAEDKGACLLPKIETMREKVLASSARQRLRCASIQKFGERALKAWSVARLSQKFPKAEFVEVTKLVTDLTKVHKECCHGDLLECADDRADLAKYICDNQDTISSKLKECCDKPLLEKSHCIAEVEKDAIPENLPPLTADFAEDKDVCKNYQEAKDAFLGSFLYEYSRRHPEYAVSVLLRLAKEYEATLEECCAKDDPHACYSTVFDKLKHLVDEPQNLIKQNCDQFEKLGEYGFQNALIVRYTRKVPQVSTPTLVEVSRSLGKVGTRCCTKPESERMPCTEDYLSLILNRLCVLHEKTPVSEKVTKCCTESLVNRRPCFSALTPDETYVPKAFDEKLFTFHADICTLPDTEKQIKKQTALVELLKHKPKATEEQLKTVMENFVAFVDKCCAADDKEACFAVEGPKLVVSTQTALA

Row | Binder | binding result (BSA) | binding result [1] | binding result [2]
1 | B1 | no binding | binds | 
2 | B2 | no binding |  | binds
